The text below walks through data of article PMC1885673 (Nucleic Acids Research, 2007).

Test [1] has as its target T1, S. pombe Hop2-Mnd1 complex, purified, His-tagged (S. pombe, UniProt Q9HGK2;Q09739).
T1 sequence 1: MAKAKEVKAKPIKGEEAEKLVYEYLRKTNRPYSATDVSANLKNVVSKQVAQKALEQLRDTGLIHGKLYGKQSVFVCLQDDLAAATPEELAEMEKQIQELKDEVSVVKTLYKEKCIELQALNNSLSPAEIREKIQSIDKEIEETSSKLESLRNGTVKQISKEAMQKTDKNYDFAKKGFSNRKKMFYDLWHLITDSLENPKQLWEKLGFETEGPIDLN
T1 sequence 2: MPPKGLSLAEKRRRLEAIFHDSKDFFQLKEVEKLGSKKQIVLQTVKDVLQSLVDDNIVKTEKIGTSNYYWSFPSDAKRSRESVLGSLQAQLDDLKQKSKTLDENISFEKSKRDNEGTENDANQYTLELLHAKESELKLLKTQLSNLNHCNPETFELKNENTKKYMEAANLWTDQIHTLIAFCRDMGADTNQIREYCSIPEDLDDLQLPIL
The test can be described thus: pull-down.

Test [2] has as its target T2, S. pombe Hop2 (Meu13), His-tagged, from pET28b, co-expressed and co-purified with Mnd1 (S. pombe, UniProt Q9HGK2 1-216).
T2 sequence: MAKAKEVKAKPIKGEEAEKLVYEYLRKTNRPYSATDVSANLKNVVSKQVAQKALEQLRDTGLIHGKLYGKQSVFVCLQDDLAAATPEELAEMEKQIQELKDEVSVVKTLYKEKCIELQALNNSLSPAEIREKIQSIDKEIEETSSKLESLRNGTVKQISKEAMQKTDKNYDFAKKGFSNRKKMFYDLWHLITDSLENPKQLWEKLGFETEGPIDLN
The test can be described thus: co-elution in ion-exchange chromatography.

B1: S. pombe Rad51, purified (natural protein)
chain: MADTEVEMQVSAADTNNNENGQAQSNYEYDVNVQDEEDEAAAGPMPLQMLEGNGITASDIKKIHEAGYYTVESIAYTPKRQLLLIKGISEAKADKLLGEASKLVPMGFTTATEYHIRRSELITITTGSKQLDTLLQGGVETGSITELFGEFRTGKSQICHTLAVTCQLPIDMGGGEGKCLYIDTEGTFRPVRLLAVADRYGLNGEEVLDNVAYARAYNADHQLELLQQAANMMSESRFSLLVVDSCTALYRTDFSGRGELSARQMHLARFMRTLQRLADEFGIAVVITNQVVAQVDGISFNPDPKKPIGGNILAHSSTTRLSLRKGRGEQRICKIYDSPCLPESEAIFAINSDGVGDPKEIIAPV
As to B1, the binding result in test [1] is listed as “binds”.

B2: S. pombe Mnd1 (Mcp7), His-tagged, from pET16b, co-expressed and co-purified with Hop2 (natural protein)
chain: MPPKGLSLAEKRRRLEAIFHDSKDFFQLKEVEKLGSKKQIVLQTVKDVLQSLVDDNIVKTEKIGTSNYYWSFPSDAKRSRESVLGSLQAQLDDLKQKSKTLDENISFEKSKRDNEGTENDANQYTLELLHAKESELKLLKTQLSNLNHCNPETFELKNENTKKYMEAANLWTDQIHTLIAFCRDMGADTNQIREYCSIPEDLDDLQLPIL
For B2, the binding result in test [2] is “binds”.

B3: S. pombe Dmc1, purified (natural protein)
chain: MEEFAEGNDDEQMIFSDIEDLTAHGIGMTDIIKLKQAGVCTVQGVHMSTKRFLLKIKGFSEAKVDKLKEAASKMCPANFSTAMEISQNRKKVWSISTGSEALNGILGGGIQSMSITEVFGEFRCGKTQMSHTLCVTAQLPRDMGGAEGKVAFIDTEGTFRPDRIKAIAERFGVDADQAMENIIVSRAYNSEQQMEYITKLGTIFAEDGQYRLLIVDSIMALFRVDYSGRGELSERQQKLNIMLARLNHISEEFNVAVFVTNQVQADPGAAMMFASNDRKPVGGHVMAHASATRLLLRKGRGEERVAKLNDSPDMPEAECSYVITPGGIADVS
For B3, the binding result in test [1] was “binds”.
